Key:
[1] = target: human serum-derived IgG (SIGMA, #14506, Lot #SLBR0560V) (human); assay: elution at pH 3.5 from the 1-ml Z33 column, A280
[2] = target: human serum-derived IgG (SIGMA, #14506, Lot #SLBR0560V) (human); assay: frontal loading of 0.67 mg/ml IgG on a 1-ml Z33 column (912 nmol), 20 mM phosphate pH 7.0

amount of the antibody bound to the column [1]: 19 mg | dynamic binding capacity (DBC) [2]: 26 mg
Substance: IgG-bound peptide Z33 Acetyl-…-NH2, immobilized on a HiTrap NHS-activated HP column
